Source: article PMC9776037

What was measured:
[1] = target: α2 portion of the human α2δ1 protein (voltage-sensitive calcium channel subunit) (human); test: localized surface plasmon resonance (LSPR); α2-functionalized sensors incubated overnight with full-length PLN (10 nM) or PLN Dm III-2 (100 nM), no GBP; Δλ_LSPR
[2] = target: α2 portion of the human α2δ1 protein (voltage-sensitive calcium channel subunit) (human); test: localized surface plasmon resonance (LSPR); α2 amide-coupled to gold triangular nanoprisms on glass; sensors incubated with 1 × 10^−16 to 1 × 10^−8 M PLN or PLN domains in PBS pH 7.2; Δλ_LSPR by UV-visible spectroscopy; KD from Hill-Langmuir fit with extrapolated Bmax

Row | Δλ LSPR [1] [nm] | Substance | Kd [2] [µM]
1 | 12.7 | Perlecan domain III-2, cysteine-free globular region (laminin IV-A2) (domain or fragment) | 8e-05
2 |  | Perlecan domain IV-1 (PLN Dm IV-1) (domain or fragment) | 0.14
3 |  | Perlecan domain IV-2 (PLN Dm IV-2) (domain or fragment) | 430
4 |  | Perlecan domain IV-3 (PLN Dm IV-3) (domain or fragment) | 280
